# Data taken from patent US11091749B2, “Deimmunized lysostaphin and methods of use” (TRUSTEES OF DARTMOUTH COLLEGE, priority 2014, dated 2021).
# Where a chain is given by its changes, count along the chain named. Names and notes keep the numbering of the source.
# B1: Flex 9: lysostaphin variant N12G, I41E, L83M, K95E, I99Q, N121G, S122D, S124G (protein, UniProt P10547 248-493, looked up, variant N12G I41E L83M K95E I99Q N121G S122D S124G)
# Lysostaphin: AATHEHSAQWLGNYKKGYGYGPYPLGINGGMHYGVDFFMNEGTPVKAISSGKIVEAGWSNYGGGNQIGLIENDGVHRQWYMHMSKYNVKVGDYVEAGQQIGWSGSTGYSTAPHLHFQRMVGDFGNSTAQDPMPFLKSAGYGKAGGTVTPTPNTGWKTNKYGTLYKSESASFTPNTDIITRTTGPFRSMPQSGVLKAGQTIHYDEVMKQDGHVWVGYTGNSGQRIYLPVRTWNKSTNTLGVLWGTIK
# B2: F12: variant combining cell wall binding domain mutations with Flex 9 (or derivative) catalytic domain (Table 22) (protein)
# chain: B1 Lysostaphin with E95K, S126P, Y160H, S166N, A169G, R186T, N232Q, N236D
# B3: Flex 8: lysostaphin variant N12G, I41E, L83M, I99Q, N121G, S122D (protein, UniProt P10547 248-493, looked up, variant N12G I41E L83M I99Q N121G S122D)
# Lysostaphin: B1 Lysostaphin with E95K, G124S
# B4: Flex 6: lysostaphin variant N12G, I41E, I99Q, N121G, S122D (protein, UniProt P10547 248-493, looked up, variant N12G I41E I99Q N121G S122D)
# Lysostaphin: B1 Lysostaphin with M83L, E95K, G124S
# B5: Flex 1: lysostaphin variant I41E, I99Q, S122D (SEQ ID NO:32) (protein)
# chain: B1 Lysostaphin with G12N, K46H, M83L, E95K, Q99I, R118T, G121N, S126P
# B6: Flex 10: lysostaphin variant N12G, I41E, N121G, S122D (protein, UniProt P10547 248-493, looked up, variant N12G I41E N121G S122D)
# Lysostaphin: B1 Lysostaphin with M83L, E95K, Q99I, G124S
# How the values were obtained:
# [1] = Thermostability by differential scanning fluorimetry; assay type: physicochemical
# Description: The relative thermostability of the lysostaphin variants was determined by differential scanning fluorimetry, as previously described (Niesen, et al. (2007) Nat. Protocols 2:2212-2221). Proteins and SYPRO Orange were diluted in PBS (final concentrations of 100 μg/ml and 5× in 20 μl reaction volume, respectively), and fluorescence was quantified at 1-degree increments from 25 to 94° C. using an Applied Biosystems ABI 7500 fast real-time PCR system. The reactions were performed using PCR Plates for Fast Thermocyclers (VWR; Radnor, Pa.). Fluorescence was quantified using the preset TAMRA parameters. Melting temperatures were determined by data analysis with the ‘DSF Analysis v3.0.xlsx’ EXCEL sheet and GraphPad Prism v.6.02 software.
# S. aureus SA113 [2] = assay: MIC assay; assay type: cell-based, Staphylococcus aureus; details: for MIC Strain SA113: biological duplicates; for MIC: S. aureus SA113, purified enzyme
# Description: (§1) The MICs of wild-type lysostaphin and its variants were determined by adding 2-fold serial dilutions of enzymes into wells of a polypropylene 96-well plate (Costar 3879) containing ˜40,000 S. aureus SA113 (or S. aureus 6445, 3425-1, 3425-3) cells in Muller Hinton broth (BD) supplemented with 2% NaCl and 0.1% bovine serum albumin, yielding a total volume of 100 μl. Plates were grown overnight at 37° C. with shaking at 900 rpm on an Orbit P4 orbital shaker (Labnet; Edison, N.J.). […] The assay was performed in triplicate for each enzyme.
# MRSA strain 3425-3 = assay: MIC assay; assay type: cell-based, Staphylococcus aureus; details: biological duplicates
# Description: as §1
# S. aureus 3425-1 = assay: MIC assay; assay type: cell-based, Staphylococcus aureus; details: biological duplicates
# Description: as §1
# S. aureus cells [3] = assay: Lytic assay using purified protein (SYTOX kinetic assay); assay type: cell-based, Staphylococcus aureus; details: for % WT Lytic Rate: biological duplicates; for % Wild-Type Activity: 200 ng purified enzyme
# Description: (§2) S. aureus cells were grown either to mid-log or to saturation in tryptic soy broth (TSB) at 37° C. with shaking. The cells were harvested by centrifugation and washed once in phosphate buffered saline (PBS: 2.7 mM KCl, 1.5 mM KH2PO4, 8.9 mM Na2HPO4, 136.9 mM NaCl, pH 7.4). The assay was performed in 96-well, black, clear bottom plates from Greiner Bio-One (Monroe, N.C.). The final (250 μl) reaction was composed of 10 μl of P. pastoris culture supernatant, S. aureus cells at OD600=1.5, and 5 μM SYTOX Green (Thermo Fisher Scientific; Waltham, Mass.), all in PBS. Data were collected using SPECTRAMAX GEMINI Fluorescence Microplate Reader (Molecular Devices; Sunnyvale, Calif.) using an excitation/emission of 504/523 nm, and rates were determined from the slope of the steepest linear portion of the trace. Each assay was performed with 500 ng of commercially-sourced lysostaphin (ssLys) as an internal control.
# The activity of purified lysostaphin variants was examined using the SYTOX kinetic assay as previously described in Chapter 2, Section 3.2.6. 200 ng of purified enzyme (instead of culture supernatant) was used in each reaction.
# S. aureus 6445 = assay: MIC assay; assay type: cell-based, Staphylococcus aureus; details: biological duplicates
# S. aureus cells [4] = assay: Lytic assay of culture supernatant (SYTOX Green); assay type: cell-based, Staphylococcus aureus; details: single point mutants
# Description: as §2
# The amount of protein used in each assay was estimated from SDS-PAGE gels. Briefly, 10 μl of culture supernatant was run on a SDS-PAGE gel together with standards of 0.5 μg, 0.7 μg, and 1 μg of ssLys in separate lanes. The gel was stained using GELCODE Blue Stain Reagent from Thermo Fisher Scientific (Carlsbad, Calif.) and bands quantified using Quantity Tools from Image Lab 5.1 software (Bio-Rad Laboratories; Hercules, Calif.).
# S. aureus SA113 [5] = assay: MIC assay using P. pastoris culture supernatant (MIC50); assay type: cell-based, Staphylococcus aureus; details: aglycosylated mutants
# Description: Lysostaphin MIC was determined essentially as described (Zhao, et al. (2014) supra). Briefly, 100 μl aliquots of P. pastoris culture supernatant were serially diluted in TSB. Each well was inoculated with 100 μl of ˜10^6 CFU/ml S. aureus SA113 in TSB. Microplates were incubated at 37° C. for 24 hours. […] MIC50 was quantified by measuring light scattering at 650 nm in a microplate reader.
# pooled splenocytes = details: mouse, in vivo
# MRSA strain USA400 [6] = assay: Efficacy of F12 in recurrent systemic MRSA infections; assay type: in vivo, DR4 HLA transgenic mice; details: for # Treated Mice Surviving: 1×10^9 MRSA USA400 i.p., 500 μg enzyme 1 hour later
# Description: In a similar set of experiments, the immunogenicity and efficacy of variant F12 was compared to wild-type LST in the absence of adjuvant using DR4 HLA transgenic mice. At week 0, mice were challenged with an intraperitoneal injection of 2×10^8 MRSA strain USA400, and 1 hour later the mice were treated with 500 μg wild-type LST or 500 μg variant F12, given as a single bolus subcutaneous injection. Subsequently, mice were challenged weekly with an intraperitoneal injection of 1×10^9 MRSA strain USA400, and treated as above. Antibody titers were measured weekly beginning at week 2. […] Variant F12 rescued all mice from four recurrent, systemic, MRSA infections (Table 24). The substantially lower antibody titers elicited by variant F12 indicate that this variant is […] than wild-type LST.
# MRSA strain USA400 [7] = assay: In vitro inhibitory activity (MIC); assay type: cell-based, Staphylococcus aureus
# Text: F11, P12 and F13 were screened for in vitro inhibitory activity against MRSA strain USA400 (FIG. 7).
molecule,measurement,setting,value
"Commercial: Commercial lysostaphin purchased from Sigma, E. coli-produced",Tm,[1]; biological duplicates,47.3 °C
same,MIC Strain SA113,S. aureus SA113 [2],0.03 µg/mL
same,MIC Strain 3425-3,MRSA strain 3425-3,0.03 µg/mL
same,MIC Strain 3425-1,S. aureus 3425-1,0.04 µg/mL
same,% WT Lytic Rate,S. aureus cells [3],60 ± 20%
same,MIC Strain 6445,S. aureus 6445,0.03 µg/mL
"Flex 14: lysostaphin variant I41E, S122D; two mutation design shared between rigid and flexible designs",Tm,"[1]; SYPRO Orange, PBS",58.6 °C
same,MIC,S. aureus SA113 [2],0.0833 µg/mL
same,% Wild-Type Activity,S. aureus cells [3],69%
Phe38Gly,"activity, % of the wild-type activity",S. aureus cells [4],69%
Ser124Tyr,"activity, % of the wild-type activity",S. aureus cells [4],16%
"Ser126Pro: aglycosylated lysostaphin mutant Ser126Pro, backbone of the designs",activity compared to the wild-type lysostaphin,S. aureus SA113 [5],equivalent activity
Thr127Ala,activity compared to the wild-type lysostaphin,S. aureus SA113 [5],equivalent activity
B1,Tm,"[1]; SYPRO Orange, PBS",53.0 °C
same,Tm,[1]; biological duplicates,52.8 °C
same,MIC,S. aureus SA113 [2],0.1250 µg/mL
same,concentration preventing outgrowth,"S. aureus SA113 [2]; all four strains (SA113, 6445, 3425-1, 3425-3)",≤ 200 ng/mL
same,MIC Strain SA113,S. aureus SA113 [2],0.04 µg/mL
same,MIC Strain 3425-3,MRSA strain 3425-3,0.2 µg/mL
same,MIC Strain 3425-1,S. aureus 3425-1,0.2 µg/mL
same,reduced proliferative response relative to wild-type group,pooled splenocytes,65%
same,% Wild-Type Activity,S. aureus cells [3],57%
same,% WT Lytic Rate,S. aureus cells [3],60 ± 20%
same,MIC Strain 6445,S. aureus 6445,0.13 µg/mL
B2,recurrent systemic MRSA infections from which mice were rescued,"MRSA strain USA400 [6]; 500 μg s.c., weekly challenges, no adjuvant",four
same,# Treated Mice Surviving,MRSA strain USA400 [6]; Week 1,9
same,# Treated Mice Surviving,MRSA strain USA400 [6]; Week 2,8
same,# Treated Mice Surviving,MRSA strain USA400 [6]; Week 3,7
same,# Treated Mice Surviving,MRSA strain USA400 [6]; Week 4,6
same,MIC activity relative to wild-type LST,MRSA strain USA400 [7],25%
same,retained original MIC activity after heating,MRSA strain USA400 [7]; 50° C. for 1 hour prior to assay,50%
B3,Tm,"[1]; SYPRO Orange, PBS",52.9 °C
same,MIC,S. aureus SA113 [2],0.2083 µg/mL
same,% Wild-Type Activity,S. aureus cells [3],60%
B4,Tm,"[1]; SYPRO Orange, PBS",54.1 °C
same,MIC,S. aureus SA113 [2],0.2083 µg/mL
same,% Wild-Type Activity,S. aureus cells [3],58%
B5,Tm,"[1]; SYPRO Orange, PBS",55.4 °C
same,MIC,S. aureus SA113 [2],0.0833 µg/mL
same,% Wild-Type Activity,S. aureus cells [3],63%
B6,Tm,"[1]; SYPRO Orange, PBS",57.5 °C
same,MIC,S. aureus SA113 [2],0.0729 µg/mL
same,% Wild-Type Activity,S. aureus cells [3],62%
